Measured values reported in patent publication US20110039770A1 (PHARMAGAP, published 2011).

How the values were obtained:
PKC-α, purified isoform = target: T1, PKC-α, purified isoform (UniProt P17252 1-672); assay: purified isoform competition ELISA, summary grade
T1 construct: also called PKC-alpha; protein kinase C alpha

PKC-βI, purified isoform = target: T2, PKC-βI, purified isoform (UniProt P05771-1 1-671); assay: purified isoform competition ELISA, summary grade
T2 construct: also called PKC-beta I; beta 1
T2 sequence (P05771 whole entry, canonical isoform): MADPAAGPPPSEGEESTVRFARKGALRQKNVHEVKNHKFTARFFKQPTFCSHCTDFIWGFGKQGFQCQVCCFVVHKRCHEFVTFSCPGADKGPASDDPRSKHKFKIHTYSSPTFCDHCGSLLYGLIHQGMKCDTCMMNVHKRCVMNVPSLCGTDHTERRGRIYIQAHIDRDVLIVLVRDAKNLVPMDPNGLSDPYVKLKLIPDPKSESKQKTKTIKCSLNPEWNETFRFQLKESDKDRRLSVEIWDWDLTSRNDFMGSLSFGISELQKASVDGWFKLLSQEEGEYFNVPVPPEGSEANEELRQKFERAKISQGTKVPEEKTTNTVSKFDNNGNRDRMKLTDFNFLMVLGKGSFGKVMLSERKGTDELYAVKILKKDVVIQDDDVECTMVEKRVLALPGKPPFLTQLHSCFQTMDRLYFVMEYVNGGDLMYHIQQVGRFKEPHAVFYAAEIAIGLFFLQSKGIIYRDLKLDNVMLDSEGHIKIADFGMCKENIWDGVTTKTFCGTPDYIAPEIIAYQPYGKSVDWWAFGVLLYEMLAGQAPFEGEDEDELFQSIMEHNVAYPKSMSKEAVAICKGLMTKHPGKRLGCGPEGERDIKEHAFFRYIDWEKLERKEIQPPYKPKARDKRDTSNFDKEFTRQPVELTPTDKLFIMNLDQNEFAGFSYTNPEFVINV

PKC-ε, purified isoform [1] = target: T3, PKC-ε, purified isoform (UniProt Q02156 1-737); assay: purified isoform competition ELISA, summary grade
T3 construct: also called PKC-epsilon; epsilon
T3 sequence (looked up): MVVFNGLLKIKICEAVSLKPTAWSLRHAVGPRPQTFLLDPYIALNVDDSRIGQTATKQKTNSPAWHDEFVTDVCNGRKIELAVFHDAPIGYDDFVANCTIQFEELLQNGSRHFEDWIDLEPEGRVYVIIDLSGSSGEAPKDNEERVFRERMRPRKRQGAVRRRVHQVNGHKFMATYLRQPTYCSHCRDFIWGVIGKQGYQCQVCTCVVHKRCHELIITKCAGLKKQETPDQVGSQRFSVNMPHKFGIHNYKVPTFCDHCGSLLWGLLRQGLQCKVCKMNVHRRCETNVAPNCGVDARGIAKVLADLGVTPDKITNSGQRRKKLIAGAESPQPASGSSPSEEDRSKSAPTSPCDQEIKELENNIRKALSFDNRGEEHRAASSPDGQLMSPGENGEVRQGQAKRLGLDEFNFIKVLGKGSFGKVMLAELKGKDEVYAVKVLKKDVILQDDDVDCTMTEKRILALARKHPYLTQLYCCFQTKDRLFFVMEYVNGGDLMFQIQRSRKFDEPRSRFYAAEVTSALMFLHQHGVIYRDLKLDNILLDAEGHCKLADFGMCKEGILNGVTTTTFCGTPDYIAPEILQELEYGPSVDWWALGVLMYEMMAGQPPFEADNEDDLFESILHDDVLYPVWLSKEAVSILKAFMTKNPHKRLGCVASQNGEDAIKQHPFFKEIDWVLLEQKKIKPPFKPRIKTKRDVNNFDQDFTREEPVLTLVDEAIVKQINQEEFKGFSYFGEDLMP

PKC-ε, purified isoform [2] = target: T3, PKC-ε, purified isoform; assay: competition ELISA on coated purified PKC-ε vs anti-PKC ε antibody; PRE 50 µM
PKC-ε, purified isoform [3] = target: T3, PKC-ε, purified isoform; assay: competition ELISA on coated purified PKC-ε vs anti-PKC ε antibody; PRE 100 µM
PKC-ε, purified isoform [4] = target: T3, PKC-ε, purified isoform; assay: competition ELISA on coated purified PKC-ε vs anti-PKC ε antibody; PRE 200 µM
[5] = target: T4, PKC-ι in extracts of human cell lines (human, UniProt P41743 2-596); assay: Western-blot competition, cell extracts: PRE at 10X/20X the anti-PKC iota primary antibody concentration competes with that antibody; band densitometry (lower band = PRE bound)
T4 construct: Denatured on the Western blot membrane; also called PKC-iota (cell extract)
T4 sequence (looked up): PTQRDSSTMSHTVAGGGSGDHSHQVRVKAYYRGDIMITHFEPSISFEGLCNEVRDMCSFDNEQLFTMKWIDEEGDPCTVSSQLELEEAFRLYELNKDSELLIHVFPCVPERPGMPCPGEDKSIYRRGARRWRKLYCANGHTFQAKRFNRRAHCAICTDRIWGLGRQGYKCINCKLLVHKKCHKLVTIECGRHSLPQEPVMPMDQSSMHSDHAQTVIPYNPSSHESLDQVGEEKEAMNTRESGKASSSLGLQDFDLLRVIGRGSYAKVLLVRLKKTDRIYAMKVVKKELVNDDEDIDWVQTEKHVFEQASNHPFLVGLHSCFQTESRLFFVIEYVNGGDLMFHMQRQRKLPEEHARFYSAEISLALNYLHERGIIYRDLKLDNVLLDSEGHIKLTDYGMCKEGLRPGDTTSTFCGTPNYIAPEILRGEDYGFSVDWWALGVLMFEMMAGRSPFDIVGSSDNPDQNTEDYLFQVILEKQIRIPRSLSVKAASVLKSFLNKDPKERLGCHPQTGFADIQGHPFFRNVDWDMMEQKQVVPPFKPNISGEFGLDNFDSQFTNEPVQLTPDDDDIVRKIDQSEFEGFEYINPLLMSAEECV

[6] = target: T5, PKC-ζ in extracts of human cell lines (human, UniProt Q05513 1-592); assay: Western-blot competition, cell extracts: PRE at 10X/20X the anti-PKC zeta primary antibody concentration competes with that antibody; band densitometry (lower band = PRE bound)
T5 construct: Denatured on the Western blot membrane; also called PKC-zeta (cell extract)
T5 sequence (looked up): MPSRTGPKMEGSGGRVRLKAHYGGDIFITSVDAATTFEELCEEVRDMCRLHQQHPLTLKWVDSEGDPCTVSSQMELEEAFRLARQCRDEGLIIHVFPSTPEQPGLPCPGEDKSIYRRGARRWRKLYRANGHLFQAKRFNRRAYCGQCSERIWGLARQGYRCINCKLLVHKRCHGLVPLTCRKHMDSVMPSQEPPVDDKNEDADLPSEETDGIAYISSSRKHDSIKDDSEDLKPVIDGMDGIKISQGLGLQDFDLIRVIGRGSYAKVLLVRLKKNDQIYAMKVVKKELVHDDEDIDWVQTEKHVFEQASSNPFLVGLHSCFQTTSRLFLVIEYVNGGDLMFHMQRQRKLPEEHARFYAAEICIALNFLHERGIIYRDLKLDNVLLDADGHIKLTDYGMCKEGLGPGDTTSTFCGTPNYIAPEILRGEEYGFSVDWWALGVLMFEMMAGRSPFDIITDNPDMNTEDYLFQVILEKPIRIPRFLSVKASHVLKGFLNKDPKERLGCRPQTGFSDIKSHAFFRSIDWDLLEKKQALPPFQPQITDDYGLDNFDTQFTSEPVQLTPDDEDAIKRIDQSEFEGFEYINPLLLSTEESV

[7] = target: T6, PKC-βI in extracts of human cell lines (human, UniProt P05771-1 2-671); assay: Western-blot competition, cell extracts: PRE at 10X/20X the anti-PKC beta I primary antibody concentration competes with that antibody; band densitometry (lower band = PRE bound)
T6 construct: Denatured on the Western blot membrane; beta I splice form; also called PKC-beta I (cell extract)
T6 sequence (P05771 2-671 limits assumed): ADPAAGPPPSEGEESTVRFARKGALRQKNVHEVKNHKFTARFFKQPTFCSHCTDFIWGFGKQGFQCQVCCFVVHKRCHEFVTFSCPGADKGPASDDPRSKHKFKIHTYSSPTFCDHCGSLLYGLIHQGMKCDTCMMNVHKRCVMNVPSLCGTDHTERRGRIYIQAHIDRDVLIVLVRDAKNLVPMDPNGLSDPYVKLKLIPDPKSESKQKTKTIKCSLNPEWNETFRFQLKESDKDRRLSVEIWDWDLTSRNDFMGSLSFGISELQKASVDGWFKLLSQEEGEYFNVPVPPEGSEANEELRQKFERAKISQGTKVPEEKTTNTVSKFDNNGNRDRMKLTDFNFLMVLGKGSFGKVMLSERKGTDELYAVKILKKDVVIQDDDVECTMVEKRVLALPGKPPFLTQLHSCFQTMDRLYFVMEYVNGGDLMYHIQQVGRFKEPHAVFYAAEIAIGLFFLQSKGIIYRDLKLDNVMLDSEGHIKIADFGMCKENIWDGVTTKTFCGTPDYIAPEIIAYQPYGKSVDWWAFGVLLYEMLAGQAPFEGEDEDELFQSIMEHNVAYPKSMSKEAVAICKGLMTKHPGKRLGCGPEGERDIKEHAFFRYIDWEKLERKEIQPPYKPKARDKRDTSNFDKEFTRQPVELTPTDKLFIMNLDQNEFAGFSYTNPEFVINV

[8] = target: T7, PKC-ε in extracts of human cell lines (human, UniProt Q02156 1-737); assay: Western-blot competition, cell extracts: PRE at 10X/20X the anti-PKC epsilon primary antibody concentration competes with that antibody; band densitometry (lower band = PRE bound)
T7 construct: Denatured on the Western blot membrane; also called PKC-epsilon (cell extract)
T7 sequence (looked up): T3 sequence (looked up)

B1: PRE 12 (peptide)
peptide: Ac-KDAQNLI-NH2
notes: Ac-KDAQNLI-NH2; also called peptide recognition element 12
binding result (PKC-α, purified isoform): no binding
binding result (PKC-βI, purified isoform): no binding
binding result (PKC-ε, purified isoform [1]): no binding
relative binding capacity (PKC-ε, purified isoform [2]): 10.4%
relative binding capacity (PKC-ε, purified isoform [3]): 0.28%
relative binding capacity (PKC-ε, purified isoform [4]): 0%
binding result [5]: no binding (tested: 20X the primary antibody concentration)
binding result [6]: binds
binding result [7]: no binding (tested: 20X the primary antibody concentration)
binding result [8]: no binding (tested: 20X the primary antibody concentration)
